Assay results taken from publication PMC2820527.

Target: SmTK4-SH2SH2 (tandem SH2-domain of SmTK4 as a fusion protein with the Gal4-BD) (Schistosoma mansoni) (UniProt Q8WPV5)
Assay: two-hybrid; beta-Gal liquid assay (ONPG) in AH109, relative binding strength; bait plasmid co-expresses the SmTK3 TK-domain (additional phosphorylation)

fold increase of the interaction (β-Gal liquid assay) with the SmTK3 TK-domain against without it: 5 fold
Substance: SmTK6 prey clone (novel schistosome Src kinase SmTK6, partial, Gal4-AD fusion) (from UniProt C5J9R9 1-565) (domain or fragment)
